This is an account of results in patent US20020045192A1, “Arf and HDM2 interaction domains and methods of use thereof” (St. Jude Children's Research Hospital, priority 2001, published 2002).

“Also recorded” adds a separate entry of the source.

The target in one assay is T1, Hdm2 210-275 (Homo sapiens, UniProt Q00987).
T1 construct: poly-His (thrombin-cleavable, from pET28a) (cleaved yes); made in house; host or cells: E. coli BL21 (DE3)
The assay is described as follows: CD-based binding assay, β-strand formation with Hdm2 210-275. On the procedure:
(§1) Spectra were recorded at 25° C. using an Aviv Model 62A DS circular dichroism spectropolarimeter (Aviv Instruments, Inc.) equipped with a thermoelectric temperature control unit. All samples were prepared in 10 mM Tris-HCl, pH 7.0 at 0.02-0.2 mM as determined by amino acid analysis. Spectra were recorded using 1 mm quartz cuveftes and reported spectra are the average of 10 scans over the range […]. Melting experiments were recorded in 10 mm quartz cuvettes with active stirring. The signal at 216 nm (β strand minimum) was used to monitor structural changes and the signal was averaged over 15 sec. The sample temperature was increased in 1° C. steps.
(§2) As discussed above, the addition of mArfN37 to Hdm2 210-304 results in the formation of supramolecular assemblies comprised of β-strands. Stepwise addition of sub-stoichiometric amounts of mArfN37 to Hdm2 210-304 increased β-strand secondary structure content as judged by the change in ellipticity at 200 nm using CD. […] The binding of mArfN37 to Hdm2 210-304, as monitored in this way, is saturable. Similar results were obtained when mArfN37 was mixed with the shorter fragment of Hdm2, Hdm2 210-275. Further, saturable binding is also observed when the Hdm2 fragments were added to an excess of mArfN37. These findings indicate that there are a limited number of binding sites for mArfN37 within Hdm2 210-304 and that discreet structures (containing β-strands) form when mArfN37 and Hdm2 210-304 (or 210-275) are mixed. […] Similar behavior is observed when mArfN37 binds Hdm2 210-275.

For a further assay, the target named is T2, Hdm2 210-304 (Homo sapiens, UniProt Q00987).
T2 construct: poly-His (thrombin-cleavable, from pET28a) (cleaved yes); made in house; host or cells: E. coli BL21 (DE3)
The assay is described as follows: CD-based binding assay, β-strand formation with Hdm2 210-304. On the procedure: as §1, §2
To investigate the roles of individual Arf motifs (A1 and A2) and Arf-binding segments of Hdm2 (H1 and H2) in the interactions between Arf and Hdm2 the binding of peptides containing these small segments (A1, A2, H1, or H2) to larger protein fragments of the corresponding binding partner (mArfN37 or Hdm2 210-304) were monitored using the CD-based binding assay. […] Peptides from the Hdm2 library that were positive for mArfN37 binding on the basis of SPR (i.e. those within H1 and H2) were mixed with mArfN37 and binding was monitored in the same manner. Three peptides from the H1 segment and one from the H2 segment of Hdm2 induce β-strand secondary structure when mixed with mArfN37 (FIG. 2c). These experiments indicate that peptides containing A1, A2, H1 or H2 can interact with larger fragments of the target protein and that the interactions also occur through the formation of β-sheet secondary structure. […] Importantly, however, further reduction in the size of the interacting species led to a loss of Arf/Hdm2 binding as judged by a failure to induce structure in CD titration experiments. […] Similarly, while peptides derived from the H1 or H2 segments of Hdm2 bind mArfN37, they fail to bind peptides derived from the A1 or A2 segments of mouse or human Arf. Furthermore, mixtures of two, three, or four different peptides that contain the important binding segments (A1, A2, H1, and H2) fail to interact, in contrast to the results obtained when A1 and A2, or H1 and H2, are covalent linked in larger protein fragments. Apparently, cooperative interactions between covalently linked binding segments from one protein (A1 and A2 of Arf, or H1 and H2 of Hdm2) are minimally required for Arf/Hdm2 interactions.

In the next assay the target is T3, GFP-p19^Arf (Mus musculus, UniProt Q64364).
T3 construct: expressed in transfected cells; host or cells: NIH 3T3 Arf-/- cells
T3 sequence (Q64364 1-169): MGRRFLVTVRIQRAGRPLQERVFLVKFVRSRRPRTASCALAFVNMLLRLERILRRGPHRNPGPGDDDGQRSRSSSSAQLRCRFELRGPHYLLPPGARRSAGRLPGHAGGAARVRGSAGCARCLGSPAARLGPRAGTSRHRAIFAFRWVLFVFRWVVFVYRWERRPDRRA
The assay is described as follows: Nuclear microinjection and live cell imaging of Texas Red labeled Hdm2 constructs in NIH 3T3 cells lacking Arf. Type of assay: cell-based. Conditions: NIH 3T3 Arf-/- cells, nuclear microinjection. The procedure:
Proteins for fluorescence microimaging studies were covalently modified using an amine-reactive, sulfosuccinimidyl ester of Texas Red™ (Molecular Probes, Inc., Cat. # C-1171). In brief, purified Hdm2-derived proteins were dialyzed into 100 mM sodium bicarbonate buffer, pH 8.3 at 2-4 mg/ml. The Texas Red™ dye was dissolved in dimethylsulfoxide at 10 mg/ml. Protein and dye 3:1 (vol:vol) were reacted for 1 hour at room temperature followed by purification using size-exclusion chromatography (NAP 5 G-25 columns, Amersham Pharmacia Biotech, Inc.). Labeled protein bands migrated more slowly than unlabeled protein in SDS-polyacrylamide gels consistent with the covalent attachment of dye.
NIH 3T3 Arf^−/− cells passage 10-15 were cultured in Dulbecco's modified Eagle's medium (Dulbecco's modified Eagle's medium (DMEM); Gibco-Invitrogen, Inc.), 10% fetal bovine serum (FBS) at 37° C., 7% CO2. 24 hours prior to transfection, cells were plated on 35 mm dishes coated with poly-D-Lysine (Mattek, Corp.) at a density of 3×10^4 cells per dish. Cells were transfected with a pcDNA plasmid (Invitrogen) containing the GFP-p19^ARF fusion protein using Fugene-6 (Roche Molecular Biochemicals, Inc.) in media according to the protocol supplied by the manufacturer. Sixteen hours post-transfection, the transfection media was refreshed with DMEM, 10% FBS and the cells were allowed to recover for four hours. […] An Axiovert 135 TV inverted fluorescence microscope with an automated stage controller (Carl Zeiss, Inc.) and circulating water bath heater (Fisher) was used for both microinjection and imaging. […]
Hdm2 deletion constructs tagged with a fluorescent label (Texas Red™) were microinjected into the nucleus of NIH 3T3 cells. importantly, the NIH 3T3 cell line used lacks the gene for Arf. […] A covalently bound fluorescent label was used to detect Hdm2 fragments instead of immuno fluorescence to avoid nonspecific background staining and staining variability due to differential antibody reactivity. […]

In another assay the target is T4, mArfN37 (Mus musculus, UniProt Q64364).
T4 construct: An N-terminal fragment of mouse p19^Arf corresponding to residues 1-37 (mArfN37) was purified in a similar manner; made in house
T4 sequence (Q64364 1-37 limits assumed): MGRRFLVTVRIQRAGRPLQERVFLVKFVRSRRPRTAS
The assay is described as follows: SPR binding of Hdm2 constructs and Hdm2 peptides to immobilized His-tagged mArfN37. On the procedure: Binding studies were performed using a Biacore 3000 surface plasmon resonance (SPR) instrument (Biacore, Inc.). A Tetra-His™ Antibody (Qiagen, Inc.; Cat. #34670) was covalently attached to a carboxymethylated gold surface (C-1 chip; Biacore, Inc.). The carboxymethyl groups on the surface were activated with N-ethyl-N′-(3-dimethylaminopropyl) carbodiimide (EDC) and N-hydroxysuccinimide (NHS) and the antibody was attached at pH 7.4 in 20 mM sodium phosphate buffer, 150 mM NaCl (PBS). Reactive sites remaining on the surface were blocked by reaction with ethanolamine. […] Binding was measured by flowing the non-His-tagged analyte through the reference and ligand-containing flow cells in sequence. […] Changes in the SPR response due to solvent differences and the injection process were monitored by injection of HBS-N buffer alone. […]
It has been previously shown that a fragment of mouse p19^Arf containing the N-terminal 37 amino acids (mArfN37) can (i) bind Hdm2, (ii) cause the relocalization of Hdm2 to nucleoli, and (iii) induce cell cycle arrest in MEFs [see, U.S. patent application Ser. No. 09/480,718, Filed Jan. […] However, because mArfN37 is a relatively small polypeptide, it was determined whether it could bind a correspondingly small segment of Hdm2. […]

T1 sequence (Q00987 210-275): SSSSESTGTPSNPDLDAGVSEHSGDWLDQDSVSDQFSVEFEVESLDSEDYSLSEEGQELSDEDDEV
T2 sequence (Q00987 210-304): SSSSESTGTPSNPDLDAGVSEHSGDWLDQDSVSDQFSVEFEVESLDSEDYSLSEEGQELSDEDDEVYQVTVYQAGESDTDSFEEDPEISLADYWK

Regarding “mouse A2 (16-30): Peptide corresponding to the mouse Arf motif A2, residues 16-30 (RPLQERVFLVKFVRS)”, in the assay with Hdm2 210-275, the “induction of β-strand assembly when mixed with Hdm2 210-275 (CD)” value (“induction of β-strand assembly” below) is reported as “fail to induce β-strand assembly”. For the same substance, in the assay with Hdm2 210-304, the “induction of β-strand secondary structure when mixed with Hdm2 210-304 (CD)” value (shortened to “induction of β-strand secondary structure … (CD)”) is on record as “induce the transition from random conformations to β-strand secondary structure”.
On the same counts, the results for “human A2 (16-30): Peptide containing the human Arf motif A2, residues 16-30 (GPPRVRVFVVHIPRL)” are “fail to induce β-strand assembly” and “produce the random-to-β-strand structure transition”.
As for “Hdm2 277-491: Texas Red labeled Hdm2 deletion construct containing residues 277-491”, the “localization of Texas Red labeled Hdm2 construct when GFP-p19^Arf is expressed” value with GFP-p19^Arf was “nucleolar localization”.
For “Hdm2 210-304: Fragment of Hdm2 corresponding to residues 210-304 of SEQ ID NO:8”, in the assay with GFP-p19^Arf, the “localization of Texas Red labeled Hdm2 construct in cells that did not express Arf” value was “evenly dispersed in the nucleoplasm” and the “localization of Texas Red labeled Hdm2 construct when GFP-p19^Arf is expressed” value was “co-localized within nucleoli; also recorded: nucleolar localization”. The “binding to His-tagged mArfN37 immobilized on the SPR biosensor surface” value in the assay with mArfN37 (His-mArfN37 captured by covalently linked His antibody) is recorded as “bind tightly”.
Consider “mArfN37: N-terminal fragment of mouse p19^Arf corresponding to residues 1-37 (MGRRFLVTVRIQRAGRPLQERVFLVKFVRSRRPRTAS)”, for which, in the assay with Hdm2 210-275, the “induction of β-strand assembly” value was “striking transition from random conformations to β-strand secondary structure”. Further, the “induction of β-strand secondary structure … (CD)” value in the assay with Hdm2 210-304 is recorded as “striking transition from random conformations to β-strand secondary structure”.
Consider “human A1 (1-14): Peptide containing the human Arf motif A1, residues 1-14 (MVRRFLVTLRIRRA)”, for which, in the assay with Hdm2 210-275, the “induction of β-strand assembly” value is “interaction”. In the assay with Hdm2 210-304, the “induction of β-strand secondary structure … (CD)” value was “produce the random-to-β-strand structure transition”.
“residues 290-304 of SEQ ID NO:8: short synthetic Hdm2 peptide containing residues 290-304 of SEQ ID NO:8 (SFEEDPEISLADYWK; listed as Homo sapiens)”: in the assay with mArfN37 (short synthetic Hdm2 peptides, 15 amino acids), the “relative binding affinity for mArfN37 (SPR)” value was “modest affinity”.
For the substance “mouse A1 (1-14): Peptide corresponding to the mouse Arf motif A1, residues 1-14 (MGRRFLVTVRIQRA)”, the “induction of β-strand assembly” value in the assay with Hdm2 210-275 is “interaction”. In addition, the “induction of β-strand secondary structure … (CD)” value with Hdm2 210-304 is “induce the transition from random conformations to β-strand secondary structure”.
